Data as given in patent publication US20200392228A1 (PANDION OPERATIONS, published 2020).
Like-named read-outs stand apart in the source and are kept apart here.

T1: mouse MAdCAM expressed on cells (mouse, UniProt Q61826 22-405)
T1 construct: whole, on cells
T1 sequence (looked up): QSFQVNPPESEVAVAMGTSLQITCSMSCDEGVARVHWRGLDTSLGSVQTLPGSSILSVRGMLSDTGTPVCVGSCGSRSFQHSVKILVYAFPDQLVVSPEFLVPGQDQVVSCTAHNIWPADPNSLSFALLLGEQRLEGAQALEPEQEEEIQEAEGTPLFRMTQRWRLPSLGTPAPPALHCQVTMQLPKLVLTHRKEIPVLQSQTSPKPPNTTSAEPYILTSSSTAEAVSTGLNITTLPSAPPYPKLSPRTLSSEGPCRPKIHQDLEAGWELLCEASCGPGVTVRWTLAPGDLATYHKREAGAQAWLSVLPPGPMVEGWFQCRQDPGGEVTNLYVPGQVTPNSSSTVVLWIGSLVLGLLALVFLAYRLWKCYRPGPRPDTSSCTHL

T2: human MAdCAM expressed on cells (human, UniProt Q13477 19-382)
T2 construct: whole, on cells; also called MADCAM1
T2 sequence (looked up): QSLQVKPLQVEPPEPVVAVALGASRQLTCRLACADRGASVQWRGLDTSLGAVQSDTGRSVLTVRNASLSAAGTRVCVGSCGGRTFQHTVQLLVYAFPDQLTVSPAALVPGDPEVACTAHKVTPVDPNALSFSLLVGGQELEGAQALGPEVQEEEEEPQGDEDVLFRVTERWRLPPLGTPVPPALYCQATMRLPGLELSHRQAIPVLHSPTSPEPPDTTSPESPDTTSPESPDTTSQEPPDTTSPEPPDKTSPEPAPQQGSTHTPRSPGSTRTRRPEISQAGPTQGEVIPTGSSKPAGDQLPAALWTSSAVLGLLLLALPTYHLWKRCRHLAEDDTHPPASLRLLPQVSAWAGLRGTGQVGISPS

T3: human MAdCAM protein (human, UniProt Q13477 19-317)
T3 construct: used for Octet, SPR, ELISA and plate capture; construct not described; also called recombinant human MAdCAM; soluble monomeric human MAdCAM
T3 sequence (looked up): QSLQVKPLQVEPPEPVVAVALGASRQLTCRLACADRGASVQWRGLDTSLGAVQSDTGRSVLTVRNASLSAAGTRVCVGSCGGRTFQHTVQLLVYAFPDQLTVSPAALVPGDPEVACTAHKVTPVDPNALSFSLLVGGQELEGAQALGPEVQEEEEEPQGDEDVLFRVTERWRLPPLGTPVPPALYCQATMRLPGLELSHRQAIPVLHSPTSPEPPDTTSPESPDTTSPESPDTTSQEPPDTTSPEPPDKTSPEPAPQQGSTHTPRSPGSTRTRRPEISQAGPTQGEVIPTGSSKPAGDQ

T4: mouse MAdCAM protein (mouse, UniProt Q61826 22-365, limits assumed)
T4 construct: also called recombinant mouse MAdCAM-1; mMAdCAM-1
T4 sequence (looked up): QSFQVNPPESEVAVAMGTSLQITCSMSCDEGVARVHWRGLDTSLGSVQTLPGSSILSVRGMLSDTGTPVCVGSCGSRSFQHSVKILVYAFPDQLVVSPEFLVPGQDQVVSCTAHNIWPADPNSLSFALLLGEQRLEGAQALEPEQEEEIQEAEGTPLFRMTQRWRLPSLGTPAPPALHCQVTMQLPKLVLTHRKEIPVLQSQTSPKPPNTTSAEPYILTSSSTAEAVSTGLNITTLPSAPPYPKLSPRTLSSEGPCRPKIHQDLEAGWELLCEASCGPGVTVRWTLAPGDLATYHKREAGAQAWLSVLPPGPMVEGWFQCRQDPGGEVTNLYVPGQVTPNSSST


What was measured:
[1] = target: T1, mouse MAdCAM expressed on cells; test: cell binding
[2] = target: T2, human MAdCAM expressed on cells; test: cell binding
human MAdCAM protein [3] = target: T3, human MAdCAM protein; test: Octet
mouse MAdCAM protein [4] = target: T4, mouse MAdCAM protein; test: Octet
[5] = target: T1, mouse MAdCAM expressed on cells; test: cell binding; remark: listed apart in the source
[6] = target: T2, human MAdCAM expressed on cells; test: cell binding; remark: listed apart in the source
human MAdCAM protein [7] = target: T3, human MAdCAM protein; test: Octet; remark: listed apart in the source
mouse MAdCAM protein [8] = target: T4, mouse MAdCAM protein; test: Octet; remark: listed apart in the source

| Binder | binding result [1] | binding result [2] | binding result (human MAdCAM protein [3]) | binding result (mouse MAdCAM protein [4]) | binding result [5] | binding result [6] | binding result (human MAdCAM protein [7]) | binding result (mouse MAdCAM protein [8]) |
| --- | --- | --- | --- | --- | --- | --- | --- | --- |
| MAdCAM antibody Clone ID 2 of Table 6 (scFv) (scFv) scFv: QVQLVQSGAEVKKPGASVKVSCKASGYPFIGYYLHWVRQAPGQGLEWMGIINPSGGSTSYAQKFQGRVTMTRDTSTSTVYMELSSLRSEDTAVYYCAREGRLSYGMDAWGQGTLVTVSSGGGGSGGGGSGGGGSGGGGSDIQMTQSPSSLSASVGDRVTITCRASQSISSYLAWYQQKPGKAPKLLIYGASTLESGVPSRFSGSGSGTDFTLTISSLQPEDFATYYCQQTWGPPFTFGQGTKLEIK | binds | binds | binds | binds | – | – | – | – |
| MAdCAM antibody Clone ID 6 of Table 7 (IgG) (antibody, V domains shown, IgG format) VH: EVQLLESGGGLVQPGGSLRLSCAASGFTFNNYAFHWVRQAPGKGLEWVSRINSYGTSTTYADSVKGRFTISRDNSKNTLYLQMNSLRAEDTAVYYCAREGPVAGYWYFDLWGQGTLVTVSS VL: DIQMTQSPSSLSASVGDRVTITCRASQIIGTNLAWYQQKPGKAPKLLIYGASSLQSGVPSRFSGSGSGTDFTLTISSLQPEDFATYYCQQSYRLPFTFGQGTKVEIK | – | – | – | – | no binding | binds | binds | no binding |
| MAdCAM antibody Clone ID 63 of Table 6 (scFv) (scFv) scFv: EVQLLESGGGLVKPGGSLRLSCAASGFTFDDYAMHWVRQAPGKGLEWVASITSSSAFIDYAASVKGRFTISRDDSKNTLYLQMNSLKTEDTAVYYCARERVDWNSYFDLWGRGTLVTVSSGGGGSGGGGSGGGGSGGGGSEIVMTQSPATLSVSPGERATLSCRASQGISNSYLAWYQQKPGQAPRLLIYGASTRATGIPARFSGSGSGTEFTLTISSLQSEDFAVYYCQQYYTYPPTFGPGTKVDIK | binds | binds | binds | binds | – | – | – | – |
| MAdCAM antibody Clone ID 46 of Table 7 (IgG) (antibody, V domains shown, IgG format) VH: EVQLLESGGGLVQPGGSLRLSCAASGFSFSSYTMNWVRQAPGKGLEWVSFITSSSRTIYYADSVKGRFTISRDNSKNTLYLQMNSLRAEDTAVYYCARDRRGDYGDSWYFDLWGRGTLVTVSS VL: EIVMTQSPATLSVSPGERATLSCRASQSVRNYLAWYQQKPGQAPRLLIYGASTRATGIPARFSGSGSGTEFTLTISSLQSEDFAVYYCQQYGSSPLTFGGGTKVEIK | – | – | – | – | no binding | binds | binds | no binding |
| MAdCAM antibody Clone ID 20 of Table 7 (IgG) (antibody, V domains shown, IgG format) VH: EVQLLESGGGLVQPGGSLRLSCAASGFTFSDSAMHWVRQAPGKGLEWVSAISGSGSTIYYADSVKGRFTISRDNSKNTLYLQMNSLRAEDTAVYYCVSDIAVAGHWYFDLWGRGTLVTVSS VL: DIQMTQSPSSLSASVGDRVTITCRASQSISTFLNWYQQKPGKAPKLLIYAASRLEGGVPSRFSGSGSGTDFTLTISSLQPEDFATYYCQQANSFPLTFGPGTKVDIK | – | – | – | – | no binding | binds | binds | no binding |
| MAdCAM antibody Clone ID 17 of Table 7 (IgG) (antibody, V domains shown, IgG format) VH: QVQLVQSGAEVKKPGSSVKVSCKASGYTFTDYHIHWVRQAPGQGLEWMGGIVPRSGSTTYAQKFQGRVTITADESTSTAYMELSSLRSEDTAVYYCAKDESSGWYYFDYWGQGTLVTVSS VL: DIVMTQSPLSLPVTPGEPASISCRSSQSLLHSNGYNYLDWYLQKPGQSPQLLIYSAYNRASGVPDRFSGSGSGTDFTLKISRVEAEDVGVYYCMQALQTPLTFGQGTKVEIK | – | – | – | – | no binding | binds | binds | no binding |
| MAdCAM antibody Clone ID 22 of Table 7 (IgG) (antibody, V domains shown, IgG format) VH: EVQLLESGGGLVQPGGSLRLSCAASGFTFDDYAMHWVRQAPGKGLEWVSGISWNSGSIGYADSVKGRFTISRDNSKNTLYLQMNSLRAEDTAVYYCAKDIVAAGHYYYGMDVWGQGTTVTVSS VL: DIQMTQSPSSLSASVGDRVTITCQASQDISNYLNWYQQKPGKAPKLLIYDASNLETGVPSRFSGSGSGTDFTLTISSLQPEDFATYYCQQSYSTPLTFGGGTKVEIK | – | – | – | – | no binding | binds | binds | no binding |
| MAdCAM antibody Clone ID 23 of Table 7 (IgG) (antibody, V domains shown, IgG format) VH: EVQLLESGGGLVQPGGSLRLSCAASGFTFDDYAMHWVRQAPGKGLEWVSYIDTSSSHLYYADSVKGRFTISRDNSKNTLYLQMNSLRAEDTAVYYCARDEAAAGYYGMDVWGQGTTVTVSS VL: DIQMTQSPSSLSASVGDRVTITCQAGQDISNYLNWYQQKPGKAPKLLIYDASNLETGVPSRFSGSGSGTDFTLTISSLQPEDFATYYCQQTYSTPITFGQGTKLEIK | – | – | – | – | no binding | binds | binds | no binding |
| MAdCAM antibody Clone ID 75 of Table 7 (IgG) (antibody, V domains shown, IgG format) VH: EVQLLESGGGLVQPGGSLRLSCAASGFTFSDFWMHWVRQAPGKGLEWISYISGDSGYTNYADSVKGRFTISRDNSKNTLYLQMNSLRAEDTAVYYCARDRPYYYYMDVWGKGTTVTVSS VL: DIQMTQSPSSLSASVGDRVTITCRASQSVSRSLAWYQQKPGKAPKLLIYAASSLQSGVPSRFSGSGSGTDFTLTISSLQPEDFATYYCQQYKSYPVTFGQGTKVEIK | – | – | – | – | binds | binds | binds | binds |
| MAdCAM antibody Clone ID 4 of Table 6 (scFv) (scFv) scFv: QVQLVQSGAEVKKPGASVKVSCKASGGTFSSYAISWVRQAPGQGLEWMGSINPSGDTTSYAQKFQGRVTMTRDTSTSTVYMELSSLRSEDTAVYYCAKDKAQWLVGYFDYWGQGTLVTVSSGGGGSGGGGSGGGGSGGGGSDIQMTQSPSSLSASVGDRVTITCQASQDISNSLNWYQQKPGKAPKLLIYAASSLQSGVPSRFSGSGSGTDFTLTISSLQPEDFATYYCQQSYSSVITFGQGTKVEIK | binds | binds | binds | binds | – | – | – | – |
| MAdCAM antibody Clone ID 59 of Table 6 (scFv) (scFv) scFv: EVQLLESGGGLVQPGGSLRLSCAASGFTFSDFWMHWVRQAPGKGLEWISYISGDSGYTNYADSVKGRFTISRDNSKNTLYLQMNSLRAEDTAVYYCARDRPYYYYMDVWGKGTTVTVSSGGGGSGGGGSGGGGSGGGGSDIQMTQSPSSLSASVGDRVTITCRASQSVSRSLAWYQQKPGKAPKLLIYAASSLQSGVPSRFSGSGSGTDFTLTISSLQPEDFATYYCQQYKSYPVTFGQGTKVEIK | binds | binds | binds | binds | – | – | – | – |
| MAdCAM antibody Clone ID 79 of Table 7 (IgG) (antibody, V domains shown, IgG format) VH: EVQLLESGGGLVKPGGSLRLSCAASGFTFDDYAMHWVRQAPGKGLEWVASITSSSAFIDYAASVKGRFTISRDDSKNTLYLQMNSLKTEDTAVYYCARERVDWNSYFDLWGRGTLVTVSS VL: EIVMTQSPATLSVSPGERATLSCRASQGISNSYLAWYQQKPGQAPRLLIYGASTRATGIPARFSGSGSGTEFTLTISSLQSEDFAVYYCQQYYTYPPTFGPGTKVDIK | – | – | – | – | binds | binds | binds | binds |
| MAdCAM antibody Clone ID 78 of Table 7 (IgG) (antibody, V domains shown, IgG format) VH: QVQLVQSGAEVKKPGSSVKVSCKASGGTFSSYAISWVRQAPGQGLEWMGWMEPHTGNTRYAQKFQGRVTITADESTSTAYMELSSLRSEDTAVYYCAKGGFSWFDPWGQGTLVTVSS VL: not shown | – | – | – | – | binds | binds | binds | – |
